From the RNAGym collection of RNA variant scans (doi:10.7554/elife.80360)

B1: Hairpin Ribozyme (parent)
chain: GUCCUCUUUCACGUGCGCGUGAAAGAGAGAAGUGAACCAGAGAAACACACGUUGUGGUAUAUUACCUGGUA

Variants of: B1
Experiment: self-cleavage, relative activity (ratio to wild type); higher = more cleavage; co-transcriptional

Variant | self-cleavage
A47C U53A | 0.28
A45U U55G | 0.0773
A45U U55C | 0.0822
C46U A47C | 0.149
C46U A47U | 0.163
C46U A47G | 0.0613
C46G G54U | 0.119
C46G G54A | 0.134
C46A G56A | 0.167
A47C C65A | 0.282
C46U C48A | 0.203
C46U C48U | 0.139
A45U G57C | 0.15
A45G A47G | 0.101
C46U G51C | 0.176
C46U G51U | 0.256
A47G A71G | 0.142
A47C U70A | 0.264
C46U U63A | 0.0217
C46U U63G | 0.221
A47C A59G | 0.0267
C46G C65U | 0.107
C46A U55G | 0.253
C46A U55C | 0.324

Variant | self-cleavage
C46U U52A | 0.179
C46A A71G | 0.24
C46A U67A | 0.122
A45U U63G | 0.0513
A45U U63A | 0.148
C46U G54A | 0.237
C46G U58A | 0.256
C46G U58G | 0.112
C46G U58C | 0.308
A45G U62A | 0.0572
A45G U62G | 0.12
A47C G54C | 0.228
A47C G54U | 0.241
C46A A61C | 0.311
C46U U55A | 0.115
C46U U55C | 0.0817
C46U U55G | 0.125
A47G C65U | 0.156
A45U C66G | 0.236
C46G U53G | 0.186
C46A U63C | 0.225
C46A U63A | 0.12
C46A C65A | 0.13
C46A C65G | 0.146

Variant | self-cleavage
A45U U67C | 0.0755
A47G G68A | 0.181
C46U C50A | 0.0957
C46U C50U | 0.227
A47G G54A | 0.177
A47G G54C | 0.266
A47C U52A | 0.407
A45C U63A | 0.0272
A47C U58G | 0.172
C46G G57U | 0.167
A47G U53G | 0.338
A47C U63G | 0.104
A47C U63C | 0.0902
A47C U63A | 0.127
A47C C48G | 0.0552
A47C C48U | 0.0858
A45U C65A | 0.131
A45G U58C | 0.269
C46U A71C | 0.151
C46U A71G | 0.302
C46G G51U | 0.164
C46G G51C | 0.0873
C46G G51A | 0.154
A45U G69A | 0.111

Variant | self-cleavage
A45U U60C | 0.112
A45U G56A | 0.166
A47G U55C | 0.207
C46A A47G | 0.133
C46A A47U | 0.199
A45G A61U | 0.0962
A45G A61G | 0.169
A47C U62A | 0.195
C46G U70A | 0.161
C46G U70G | 0.149
A45G A49U | 0.172
A45G A49G | 0.177
A47C G57A | 0.225
C46G A61C | 0.154
C46U A59C | 0.32
A47G U58G | 0.119
C46A G57C | 0.156
A45C U67C | 0.128
A47G U52G | 0.259
A47G G57C | 0.159
A45U U53C | 0.161
C46U A64G | 0.021
A45G U67C | 0.12
C46G G68C | 0.13

Variant | self-cleavage
A45C U70A | 0.222
A45C U70C | 0.241
A45G G56A | 0.183
C46G C50A | 0.0593
C46G C50G | 0.217
A47G G56A | 0.103
A47G G56C | 0.132
A47C U67G | 0.123
A47C U67C | 0.148
A45G G51C | 0.176
A47G A61U | 0.195
A47G A61C | 0.132
A47C A64U | 0.218
A45U U58G | 0.123
A45U U58A | 0.132
A47C U55C | 0.233
C46U U58A | 0.0874
A47G C66A | 0.138
C46G U55A | 0.142
C46A A49C | 0.156
A45G C50G | 0.109
C46G A49G | 0.137
C46U C66G | 0.146
C46U C66A | 0.113

Variant | self-cleavage
A47G A59U | 0.186
A47G A59C | 0.134
A47C C50G | 0.0249
A47C A61G | 0.17
A45U C46G | 0.241
A45U C46A | 0.125
A45G C65G | 0.168
A45G C65A | 0.349
A45G C65U | 0.146
C46U U53C | 0.235
C46U C65U | 0.216
C46U G69C | 0.138
A45U C50A | 0.145
A47C G56C | 0.161
C46G U60C | 0.0722
A45G | 0.177
A45U | 0.14
C46G C66U | 0.215
C46G C66G | 0.162
C46G C66A | 0.253
A45G U52A | 0.0852
A45G U52C | 0.0811
A47G C48G | 0.121
A45G A64U | 0.176

Variant | self-cleavage
C46U A49C | 0.201
C46U U67G | 0.171
A45U G51A | 0.075
C46G G69A | 0.179
C46G G69C | 0.123
A45G A59C | 0.151
C46A G51C | 0.0397
C46A G54A | 0.126
C46A G54C | 0.129
C46A G68A | 0.12
C46A G68C | 0.277
A45U G68A | 0.169
A45U G68U | 0.258
C46G U63C | 0.103
C46G U63G | 0.0876
C46A U62A | 0.132
C46A A59G | 0.107
A45C U60A | 0.174
C46A C50U | 0.111
C46G A71C | 0.211
A47C G51U | 0.392
A47C G51A | 0.303
A45G G57C | 0.0828
